What was measured:
rat promyostatin [1] = biological target: T1, rat promyostatin (rat, UniProt O35312 25-376); assay: biolayer interferometry (ForteBio Octet QKe), apitegromab on human Fc capture tips, promyostatin in solution, 1:1 global fit, single concentration
Description: (§1) All baseline steps, loading of biotinylated antigens, and antibody association and dissociation steps were performed in 1× kinetics buffer containing PBS pH 74 with 0.002% Tween 20 and 0.01% BSA. Association proceeded for 300 seconds and dissociations were then performed in 1× kinetics buffer for at least 600 seconds. Data analysis was performed on FortèBio Data Analysis software version 8.2. A 1:1 global fitting model considering both association and dissociation was then utilized for the single concentration KD determination for each antigen antibody/construct pair.

[2] = biological target: T2, cynomolgus monkey promyostatin (cynomolgus monkey, UniProt Q95J86 19-375); assay: as above
T2 construct: also called cynomolgus promyostatin
Description: as §1

rat promyostatin [3] = biological target: T1, rat promyostatin; assay: cell-based or functional assay
[4] = biological target: T2, cynomolgus monkey promyostatin; assay: cell-based or functional assay

Kd (rat promyostatin [1]): 2 nM | Kd [2]: 4.86 nM | IC50 of inhibition of proteolytic activation of promyostatin (SMAD-responsive luciferase reporter cells) (rat promyostatin [3]): 153 nM | IC50 of inhibition of proteolytic activation of promyostatin (SMAD-responsive luciferase reporter cells) [4]: 584 nM
B1: Apitegromab (antibody, human IgG4 S228P, lambda, V domains shown)
VH: QVQLVESGGGVVQPGRSLRLSCAASGFTFSSYGMHWVRQAPGKGLEWVAVISYDGSNKYYADSVKGRFTISRDNSKNTLYLQMNSLRAEDTAVYYCARDLLVRFLEWSHYYGMDVWGQGTTVTVSS
VL: not shown
notes: Fully human monoclonal IgG4/lambda; also called SRK-015; anti-pro/latent myostatin antibody

Source: patent US20240002490A1 (SCHOLAR ROCK, published 2024)
